Changes are numbered by the printed parent chain. Numbers in names are those of the source. Entries after “also recorded” stand apart in the source; their conditions may differ.
B1: T536C: P. alba IspS variant T536C; pDW102, strain DW400, SEQ ID NO: 71 (protein)
chain: MEARRSANYEPNSWDYDYLLSSDTDESIEVYKDKAKKLEAEVRREINNEKAEFLTLLELIDNVQRLGLGYRFESDIRGALDRFVSSGGFDAVTKTSLHGTALSFRLLRQHGFEVSQEAFSGFKDQNGNFLENLKEDIKAILSLYEASFLALEGENILDEAKVFAISHLKELSEEKIGKELAEQVNHALELPLHRRTQRLEAVWSIEAYRKKEDANQVLLELAILDYNMIQSVYQRDLRETSRWWRRVGLATKLHFARDRLIESFYWAVGVAFEPQYSDCRNSVAKMFSFVTIIDDIYDVYGTLDELELFTDAVERWDVNAINDLPDYMKLCFLALYNTINEIAYDNLKDKGENILPYLTKAWADLCNAFLQEAKWLYNKSTPTFDDYFGNAWKSSSGPLQLVFAYFAVVQNIKKEEIENLQKYHDTISRPSHIFRLCNDLASASAEIARGETANSVSCYMRTKGISEELATESVMNLIDETWKKMNKEKLGGSLFAKPFVETAINLARQSHCTYHNGDAHTSPDELTRKRVLSVICEPILPFERENLYFQGLEHHHHHH
B2: SPC: P. alba MEA G491S L494P T536C (+) TEV; pDW112, SEQ ID NO: 91 (protein)
chain: B1 chain with G491S, L494P
modifications: TEV site
B3: wild type IspS: P. alba MEA (+) TEV isoprene synthase, MD09-163, strain MD09-167, SEQ ID NO: 63 (protein)
chain: B1 chain with C536T
modifications: TEV site
B4: SP: P. alba MEA G491S L494P (+) TEV; pDW110, SEQ ID NO: 87 (protein)
chain: B1 chain with G491S, L494P, C536T
modifications: TEV site

Legend:
[1] = DMAPP assay of site evaluation library (SEL) lysates with ELISA protein quantitation: specific activity ranked as performance index; format: biochemical
Method: 1. Prepared Patch Plates from Glycerol Stock Plates. Using a V&S 96 pin Replication Tool, cultures were patched onto a LB Agar 35 CMP/50 Kan large patch plates from overnight glycerol stock plates. Plates were incubated at 30° C. overnight for 20 to 24 hr. Cultures can be stored at 4° C. for up to a week.
2. Prepared Overnight Growth Plates. 500 mL of LB 35 CMP/50 Kan media were prepared. 300 μL/well of LB 35 CMP/50 Kan media were dispensed into deep 96 well plates (VWR). Using a V&S Replication Tool, the patch inoculum was transferred into deep 96 well plate by touching the tool pins to respective patch and using a circular motion to coat the pins with inoculum. The media was inoculated by dipping the tool then shaking the pin within the well. The overnight growth plates were sealed using a Breathe-Easier Sealing Membrane (Diversified Biotech). The plates were incubated in a Vertiga Shaking Incubator at 30° C. with shaking at 800 rpm overnight for 16 to 18 hr.
3. Prepared Day Growth Plate. Deep 96 well plates were prepared by dispensing 588 μL/well of LB 35 CMP/50 Kan media. Overnight growth plates were removed from the incubator. Overnight cultures were diluted 50-fold and 12 μL of overnight culture were transferred to day growth plates containing 588 μL/well of LB media containing antiobiotics. Overnight growth plates were sealed with new Breathe-Easier Sealing Membranes. Cultures were incubated at 30° C. and 800 rpm for 2.5 hr. Frozen 12 mM IPTG (Sigma) vials were removed from −20° C. and placed in a hood to thaw.
4. OD600 Plate Read of Overnight, Induction, and Harvest. 150 μL 1×PBS were dispensed into 96 well Costar Read Plates (#9017). 50 μL of culture samples were transferred to Read Plates. The OD600 reading was recorded using a Spectramax Plate Reader (Molecular Devices).
5. Induction. Electronic multi-channel pipettors were prepared to dispense 4×20 μL/well of IPTG (if 4× replicates). The multi-dispense option in the electronic pipettor was adjusted if more replicates was necessary. Thawed 12 mM IPTG was poured into 50 mL or 100 mL sterile reservoirs. 20 μL/well of IPTG into each 600 μL/well culture. Overnight growth plates were resealed. Cultures were incubated at 30° C. and 800 rpm for 4 hr. OD600 readings of plates were recorded according instructions above.
6. Harvest. 400 μL of induced culture were transferred to 800 μL Grenier storage plates. Plates were centrifuged at 3300 rpm for 20 min at 2° to 8° C. in a low speed benchtop centrifuge. Supernatants were discarded, pellets should stay in the conical bottom well. Residual supernatants were slapped out onto a paper towel on the benchtop. Plates were sealed with an aluminum foil membrane (Beckman-Coulter). Plates were covered with a plastic plate lid if available. Storage plates were labeled accordingly and stored frozen at −80° C.
Plates containing induced cell pellets were removed from the −80° C. freezer and allowed to thaw on the benchtop for 30 minutes prior to lysis. 200 μl of lysis buffer (50 mM Tris pH 8, 25 mM MgCl2, 74 μg/ml DNase I, 250 U/ml lysozyme, 0.1% Tween 20, 0.5 mM PMSF) was added to each pellet, and plates were incubated on an Eppendorf Thermomixer at 25° C. for 30 minutes at 1200 rpm. After lysis, plates were centrifuged at 3450 rpm for 15 minutes at 4° C. Supernatants were then removed and diluted 10-fold prior to DMAPP assay. 80 μl of the diluted supernatant was added to 20 μl of the DMAPP working stock (20 mM DMAPP in 0.1 M Phosphate Buffer pH 8.2, DMAPP triammonium salt, Cayman chemicals) in a Zinsser glass block. Blocks were then sealed with aluminum sealing membranes, and incubated in Thermomixers at 25° C. for 30 minutes at 450 rpm. Reactions were stopped by incubating blocks on Thermomixers at 70° C. for 12 minutes at 450 rpm. GC-MS was then used for headspace measurements to calculate the amount of isoprene produced by each lysates.
Headspace Assay. […]

[2] = Specific activity measurement of purified isoprene synthase variants (4 mM DMAPP, 30 C, GC-MS headspace); format: biochemical; conditions: for S.A. / Variant S.A./WT S.A.: 50 mM NaCl, 50 mM Tris pH = 8, 30° C.; for Variant S.A./WT S.A.: ratio to WT; for specific activity compared to WT isoprene synthase, in words: 30 C, purified enzyme
How it was run: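 Ni-affinity-purified, buffer-exchanged enzyme incubated with 4 mM DMAPP and 50 mM MgCl2 in 50 mM Tris, 50 mM NaCl, pH 8, for 15 min at 30 C in sealed vials; stopped with EDTA. Headspace isoprene quantified by GC-MS, in triplicate; protein concentration from A280 with calculated extinction coefficient.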

[3] = kcat, KM and Ki determination, rate vs [DMAPP], fit to uncompetitive substrate inhibition; format: biochemical; conditions: for KM compared to WT isoprene synthase, in words / rate profile vs [DMAPP] / Km / kcat: 1.25 to 20 mM DMAPP, 30 C; for Km / kcat / Ki: average of three trials ± one standard deviation; for kcat: in s^-1 (unit assumed); for Ki: uncompetitive substrate inhibition by DMAPP, read-out: KiDMAPP
Method: 10 uL of purified enzyme was incubated with DMAPP at concentrations ranging from 1.25 to 20 mM DMAPP in a buffer containing 50 mM Tris, 50 mM MgCl2 and 50 mM NaCl (pH=8) to a final volume of 100 uL for 15 min. at 30 C in gas tight 2 mL vials. Reactions were terminated with the addition of 100 uL of 250 mM EDTA, pH=8. Samples were analyzed by GC-MS to determine the concentration of isoprene in the headspace of the vials. Data were analyzed using Kaleidagraph and fit to following equation for uncompetitive substrate inhibition: rate/E=kcat*S/(KM+S*(1+S/Ki)). All kinetic assays were performed in triplicate.
Protein concentration was determined by measuring the absorbance of each protein solution at 280 nm on a Helwlett Pachard 8453 UV-Vis spectrophotometer and converting the absorbance to protein concentration using the extinction coefficient as determined on the Expasy website (Gasteiger E., Hoogland C., Gattiker A., Duvaud S., Wilkins M. R., Appel R. D., Bairoch A.; Protein Identification and Analysis Tools on the ExPASy Server; (In) John M. Walker (ed): The Proteomics Protocols Handbook, Humana Press (2005). pp. 571-607). The protein concentrations of isoprene synthase variants assayed for KM and kcat determination were verified by comparative gel electrophoresis of a dilution series of each protein (FIG. 61).

[4] = Differential scanning calorimetry, thermal midpoint (Tm); format: physicochemical
Method: Excessive heat capacity curves were measured using an ultrasensitive scanning high-throughput microcalorimeter, VP-Cap DSC (MicroCal, Inc., Northampton, Mass.). The standard procedure for Differential Scanning calorimetry (DSC) measurements and the theory of the technique is previously published (Freire, E. (1995) Differential Scanning calorimetry Methods. Mol. Biol. 41, 191-218). Approximately 500 μL of 0.5 mg/ml IspS (from strain MD09-167) or variant IspS-L494P (from strain DW399) and IspS-T536F (from strain DW363) (in the absence or presence of 5 mM sodium pyrophosphate) were scanned over a 30-100° C. temperature range. The same sample was then re-scanned to check the reversibility of the process. For IspS the thermal unfolding process was irreversible. The buffer used was 50 mM HEPES, 5 mM MgCl2, pH 7.4, with and without 5 mM sodium pyrophosphate. Sodium pyrophosphate was included for its ability to function as a substrate analog. A 200° C./hr scan rate was used to minimize any artifacts that may result from aggregation. The thermal midpoint (Tm) of the DSC curves was used as an indicator of the thermal stability. The thermal melting curves and the melting points for the wild type IspS and variants are shown in FIG. 56 (buffer only) and 57 (with 5 mM sodium pyrophosphate).

Ki [3] [mM] | Molecule | isoprene synthase activity of variants relative to parent, in words ([1]; SEL analysis of P. alba IspS) | performance index ([1]; primary SEL screen, activity on DMAPP per unit weight relative to the parental molecule (parent = 1)) | S.A. [2] [nmol/mg/min] | Variant S.A./WT S.A. [2] | KM compared to WT isoprene synthase, in words [3] | rate profile vs [DMAPP] [3] | Km [3] [mM] | kcat [3] | specific activity compared to WT isoprene synthase, in words [2] | thermal melting point (Tm) ([4]; buffer alone (50 mM HEPES, 5 mM MgCl2, pH 7.4)) [°C] | thermal melting point (Tm) ([4]; in the presence of 5 mM sodium pyrophosphate) [°C] | reversibility of the thermal unfolding process ([4]; re-scan of the same sample)
– | B1 | improved isoprene synthase activity; also recorded: high performing | 1.48 | 430 ± 10 | 0.9 | – | – | – | – | – | – | – | –
25 ± 21 | B2 | – | – | 630 ± 40 | 1.3 | less than the KM of the WT | uncompetitive substrate inhibition by DMAPP | 3.5 ± 0.8 | 1.5 ± 0.4 | increased specific activity; also recorded: greater than the WT isoprene synthase but less than the β isoprene synthase variant | – | – | –
16 ± 9 | B3 | – | – | 480 ± 20 | 1.0 | – | uncompetitive substrate inhibition by DMAPP | 7 ± 4 | 1.5 ± 0.6 | – | 58.3 | 54.7 | irreversible
18 ± 1 | B4 | – | – | 770 ± 40 | 1.6 | less than the KM of the WT | uncompetitive substrate inhibition by DMAPP | 4.4 ± 0.3 | 1.2 ± 0.1 | increased specific activity; also recorded: greater than the WT isoprene synthase but less than the β isoprene synthase variant | – | – | –

Source: patent publication US9175313B2, “Three-dimensional structure of isoprene synthase and its use thereof for generating variants” (Danisco US Inc., priority 2009, dated 2015)
